From the nanobody polyreactivity screen of Harvey et al. (2022)

Assay: yeast display, Sf9 membrane polyspecificity reagent, FACS + sequencing; frameworks hold sequencing errors
Outline: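 Synthetic nanobody libraries on Saccharomyces cerevisiae BJ5465 were galactose-induced for 36–48 hours, stained 1 hour at 4 °C with 10% biotinylated, detergent-solubilized Sf9 membrane reagent and enriched on streptavidin microbeads. FACS then separated cells into low and high (top ~1%) gates by anti-HA (expression) and streptavidin (reagent binding) fluorescence. Genes were colony-PCR amplified, MiSeq 2 × 250 sequenced and CDR-length filtered. A clone's polyreactivity label is that of its gate of origin.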

QVQLVESGGGLVQAGGSLRLSCAASGFIFRQNAMGWYRQAPGKERELVAAISGSGGRTYYADSVKGRFTISRDTAKNTVYLQMNSLKPEDTAVYYCAAQYVTSRFDYWGQGTQVTVSS
polyreactivity (PSR sort gate): high polyreactivity

QVQLVESGGGLVQAGGSLRLSCAASGFIFRQYAMGWYRQAPGKEMELVAAISSSGGRTYYADSVKGRFTISRDNAKNTVYLQMNSLKPEDTAVSYCNARAWLRVEYGEGYWGQGTQVTVSS
polyreactivity (PSR sort gate): high polyreactivity

QVQLVESGGGLVQAGGSLRLSCAASGFIFRRNAMGWYRQAPGKEREFVAAITWSGGSTYYADSVKGRFTISRDNAKDTVYLQMNSLKPEDTAVYYCAATYSQYWYTKYLNSYPGYDYWGQGTQVTVSS
polyreactivity (PSR sort gate): low polyreactivity

QVQLVESGGGLVQAGGSLRLSCAASGFIFRRNAMGWYRQAPGKEREFVAAITWSGGSTYYADSVKGRFTISRDNAKYTVYLQMNSLKPEDTAVYYCAATYSQYWYTKYLNSYPGYDYWGQGTQVTVSS
polyreactivity (PSR sort gate): low polyreactivity

QVQLVESGGGLVQAGGSLRLSCAASGFIFRRYAMGWSRPAPGNERELVAAITWSGGSTYYADSVKGRFTISRDNAKNTVYLQMNSLKPEDTAVYYCAAVYRQSGDYYSRDYYWGQGTQVTVSS
polyreactivity (PSR sort gate): high polyreactivity

QVQLVESGGGLVQAGGSLRLSCAASGFIFRSNAMGWYRQAPGKEREFVAAISSRGGSTTYADSVKGRFTISRDNAKNTVYLQMNSLKPEDTAVYYCARSLRRFVVAYDYWGQGTQVTVSS
polyreactivity (PSR sort gate): high polyreactivity

QVQLVESGGGLVQAGGSLRLSCAASGFIFRSYDMGWYRQAPGKERELVARISSGGSTYYADSVKGRFTISRDNAKNTVYLQMNSLKPEDTAVYYCNSARPTAAYDYWGQGTQVTVSS
polyreactivity (PSR sort gate): low polyreactivity

QVQLVESGGGLVQAGGSLRLSCAASGFIFRTNAMGWYRQAPGKERELVAAISRSGNTYYADSVKGRFTISRDNAKNTVYLQMNSLKPEDTAVYYCNAGWYGAYRWYRSDYWGQGTQVTVSS
polyreactivity (PSR sort gate): high polyreactivity

QVQLVESGGGLVQAGGSLRLSCAASGFIFRTYAMGWYRQAPGKERELDATITGDGSTNYADSVKGRFTISRDNAKKTVYLQMNSLKPEDTAVYYGSRDVRLSGDYWGQGTQVTVSS
polyreactivity (PSR sort gate): low polyreactivity

QVQLVESGGGLVQAGGSLRLSCAASGFIFRVYAMGWYRQAPGKERELVAAITRAGNTYYADSVKGRFTISRDNAKNTVYLQMNSLKPEDTAVYYCNNYHYWASPMNYWGQGTQVTVSS
polyreactivity (PSR sort gate): high polyreactivity

QVQLVESGGGLVQAGGSLRLSCAASGFIFRVYAMGWYRQAPGKERELVATITYDGGRTYYADSVKGRFTISRDNAKNTVYLQMNSLKPEDTAVFGYWGQGTQVTVSS
polyreactivity (PSR sort gate): low polyreactivity

QVQLVESGGGLVQAGGSLRLSCAASGFIFRWYAMGGYRPAPGKERELVASITRCGSTYYADSVKGRFTISRDNAKNTVYLQMNSLKPEDTAVYYCAVDYLSPKYDYWGHGTQVTVSS
polyreactivity (PSR sort gate): high polyreactivity

QVQLVESGGGLVQAGGSLRLSCAASGFIFRWYAMGWSRQAPGKERELVAAISRGGSTNYADSVKGRFTISRDNAKNTVYLQMISLKPEDTAVYYCNARYVSYSGRYVIGQYVKYDYWGQGTQVTVSS
polyreactivity (PSR sort gate): high polyreactivity

QVQLVESGGGLVQAGGSLRLSCAASGFIFRWYAMGWSRQAPGKERELVAAISSGGSTYYADSVKGRFTISRDNAKNTVYLQMNSLKPEDTAVYYCAVRRYSEGDYWGQGTQVTVSS
polyreactivity (PSR sort gate): high polyreactivity

QVQLVESGGGLVQAGGSLRLSCAASGFIFRWYAMGWYRPAPGKERELVASINWSGSRTNYADSVKGRFTISRDNAKNTVYLQMNSLKPEDTAVYYCNAYGGLQYDYWGQGTQVTVSS
polyreactivity (PSR sort gate): high polyreactivity

QVQLVESGGGLVQAGGSLRLSCAASGFIFRWYAMGWYRQAPGKERELVASINWSGSRTNYADSVKGRFTISRDNAKYTVYLQMNSLKPEDTAVYYCNAYGGLQYDYWGQGTQVSVSS
polyreactivity (PSR sort gate): high polyreactivity

QVQLVESGGGLVQAGGSLRLSCAASGFIFRWYAMGWYRQAPWKERELVASINTDGDSTYYADSVKGRFTISRDNAKNTVYLQMNSLKPEDTAVYYCAADYVGYWWYTSDNYDYWGQGTQVTVSS
polyreactivity (PSR sort gate): high polyreactivity
